{"source": "patent US20230124669A1", "about": "(ADAGENE, published 2023)", "key": {"[1]": {"molecular_target": "T1, mouse CD137 expressed on cells (mouse, UniProt P20334 24-256)", "T1 construct": "whole, on cells", "T1 sequence (looked up)": "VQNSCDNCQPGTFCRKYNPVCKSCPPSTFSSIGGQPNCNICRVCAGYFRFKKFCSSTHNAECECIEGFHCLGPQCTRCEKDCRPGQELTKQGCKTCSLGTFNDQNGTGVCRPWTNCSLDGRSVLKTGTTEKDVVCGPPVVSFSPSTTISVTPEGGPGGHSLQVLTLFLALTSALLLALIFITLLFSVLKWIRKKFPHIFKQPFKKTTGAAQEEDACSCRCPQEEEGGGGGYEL", "test": "told in words; cross-reactivity by flow cytometry on antigen-expressing cells (FIG. 13)", "method": "(§1) The affinity of antibodies was also assessed against human, monkey and mouse CD137 or PDL1 that were transiently expressed on the surface of yeast or HEK293F cells. Briefly, yeast or HEK293F cells were transfected with a plasmid expressing human, monkey or mouse CD137 or PDL1. After 48 hours, the transfected cells were harvested and then washed. Cells were then incubated with IgGs (each at 100 nM) at 4° C. in the shaking bed for 1 hour shaking at 300 rpm, protected from light. For simultaneously binding, cell were incubated with biotinylated human CD137 or PDL1 protein fused with human Fc fragment, and SA-PE (streptavidin, phycoerythrin conjugated). For cross-reactivity, cells were incubated with Alexa Fluor 647 conjugated mouse anti-human Fc antibodies. The mixtures were incubated at 4° C. in the shaking bed for 30 minutes shaking at 300 rpm, protected from light. The cells were washed once prior to analysis by flow cytometry (Beckman CytoFlex)."}, "Human PDL1 (SPR analyte)": {"molecular_target": "T2, Human PDL1 (SPR analyte) (human, UniProt Q9NZQ7 19-238, limits assumed)", "T2 construct": "also called PDL1H", "T2 sequence (Q9NZQ7 19-238 limits assumed)": "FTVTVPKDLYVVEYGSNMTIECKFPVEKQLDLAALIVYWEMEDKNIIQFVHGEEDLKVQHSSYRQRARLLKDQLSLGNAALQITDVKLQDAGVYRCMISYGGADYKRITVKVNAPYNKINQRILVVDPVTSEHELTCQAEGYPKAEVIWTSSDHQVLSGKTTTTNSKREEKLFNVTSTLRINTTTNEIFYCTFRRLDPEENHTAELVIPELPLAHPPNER", "test": "SPR (Biacore T200), antibody captured by anti-human IgG on CM5 chip, antigen injected as analyte, 1:1 Langmuir fit", "method": "(§2) Biacore T200 (GE Healthcare) was used as a high performance system for real-time biomolecular interaction analysis, using surface plasmon resonance technology (“SPR”). During the measurement, anti-human IgG monoclonal antibody from the Human Antibody Capture Kit provided by Biacore was immobilized on CM5 chips, and IgG sample was injected onto sensor chip. Analytes were injected onto IgG captured flow cell for binding kinetic analysis in HBS-EP buffer."}, "[2]": {"molecular_target": "T3, Human CD137 (SPR analyte) (human, UniProt Q07011 24-186, limits assumed)", "T3 construct": "also called CD137H", "test": "SPR (Biacore T200), antibody captured by anti-human IgG on CM5 chip, antigen injected as analyte, 1:1 Langmuir fit", "method": "as §2"}, "[3]": {"molecular_target": "T4, mouse PDL1 expressed on cells (mouse, UniProt Q9EP73 19-290)", "T4 construct": "whole, on cells", "T4 sequence (Q9EP73 19-290)": "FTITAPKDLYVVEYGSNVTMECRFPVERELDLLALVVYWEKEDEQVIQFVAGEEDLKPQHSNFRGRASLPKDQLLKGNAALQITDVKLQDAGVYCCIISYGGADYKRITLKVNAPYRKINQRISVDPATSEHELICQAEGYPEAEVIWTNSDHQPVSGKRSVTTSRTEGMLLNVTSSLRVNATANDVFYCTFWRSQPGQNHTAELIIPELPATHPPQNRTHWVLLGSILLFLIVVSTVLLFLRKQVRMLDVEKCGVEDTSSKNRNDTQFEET", "test": "flow cytometry, antigen transiently expressed on yeast or HEK293F cells, IgG at 100 nM, Alexa Fluor 647 anti-human Fc detection (FIG. 13)", "method": "as §1"}, "[4]": {"molecular_target": "T1, mouse CD137 expressed on cells", "test": "flow cytometry, antigen transiently expressed on yeast or HEK293F cells, IgG at 100 nM, Alexa Fluor 647 anti-human Fc detection (FIG. 13)", "method": "as §1"}, "[5]": {"molecular_target": "HER2 on HER2-positive tumor cells (SKOV3) (UniProt P04626 23-1255)", "test": "cell-based or functional assay"}, "[6]": {"molecular_target": "T5, human CD3 (E and δ chain heterodimer) fused with human Fc fragment (human, UniProt P07766 23-126; P04234 22-105)", "T5 construct": "ELISA coating antigen; the text prints 'E and 6 chain heterodimer', read as epsilon and delta", "T5 sequence (P07766 23-126, stated change not applied, chain 1 of 2)": "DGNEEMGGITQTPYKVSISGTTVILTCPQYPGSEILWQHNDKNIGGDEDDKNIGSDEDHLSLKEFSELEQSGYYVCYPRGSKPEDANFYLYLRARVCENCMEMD", "T5 sequence (P04234 22-105, stated change not applied, chain 2 of 2)": "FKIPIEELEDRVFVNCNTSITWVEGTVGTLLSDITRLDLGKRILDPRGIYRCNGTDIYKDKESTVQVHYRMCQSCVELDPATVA", "test": "ELISA, plate coated with 2 µg/mL antigen-human Fc fusion, serially diluted IgG", "method": "2 μg/mL of human HER2 or CD3 (E and 6 chain heterodimer) fused with human Fc fragment, were prepared and used to coat the ELISA plate at 2-8′C overnight. After washing and blocking, 50 μL serial diluted IgGs were added and incubated at 37′C for 1 hour. Plates were washed three times and then incubated with 50 μL/well TMB substrate at room temperature for about 20 minutes. Absorbance at 450 nm was measured after the reaction was stopped. The data was analyzed by GraphPad Prism 6 with nonlinear fitting."}, "[7]": {"molecular_target": "T4, mouse PDL1 expressed on cells", "test": "told in words; cross-reactivity by flow cytometry on antigen-expressing cells (FIG. 13)", "method": "as §1"}}}
{"binder": "anti-CD137 Fv (antibody, V domains shown, Named only as the anti-CD137 Fv used in the bispecific and parental antibodies; also called CD137 VH / CD137 VL) VH: EVQLVESGGGLVQPGGSLRLSCAASGFSLSTGGVGVGWIRQAPGKGLEWLALIDWADDKYYSPSLKSRLTISRDNSKNTLYLQLNSLRAEDTAVYYCARGGSDTVIGDWFAYWGQGTLVTVSS VL: DIQLTQSPSSLSASVGDRVTITCRASQSIGSYLAWYQQKPGKAPKLLIYDASNLETGVPSRFSGSGSGTDFTLTISSLQPEDFATYYCQQGYYLWTFGQGTKVEIKR", "values": [{"measurement": "binding result", "setting": "[1]", "result": "binds"}]}
{"binder": "TY22148 (bispecific antibody, human IgG1, kappa, Morrison format: anti-PDL1 Fab, anti-CD137 scFv; IgG1 with N390C:S400'C; also called PDL1 × CD137 bispecific antibody, format TYF02) heavy: DIQLTQSPSSLSASVGDRVTITCRASQSIPSFLNWYQQKPGKAPKLLIYAASSLQSGVPSRFSGSGSGTDFTLTISSLQPEDFATYYCQHYISWPRQFTFGQGTKVEIKRTVAAPSVFIFPPSDEQLKSGTASVVCLLNNFYPREAKVQWKVDNALQSGNSQESVTEQDSKDSTYSLSSTLTLSKADYEKHKVYACEVTHQGLSSPVTKSFNRGEC light: not shown", "values": [{"measurement": "Kd", "setting": "Human PDL1 (SPR analyte)", "result": 7.7, "unit": "nM"}, {"measurement": "Kd", "setting": "[2]", "result": 6.7, "unit": "nM"}, {"measurement": "binding result", "setting": "[3]", "result": "binds"}, {"measurement": "binding result", "setting": "[4]", "result": "binds"}]}
{"binder": "TY24052 (bispecific antibody, Masked, cleavable version of TY24051, uncleaved; IgG1 Fc with TYM13 mutations and N297A; also called SAFEbody) heavy: not shown not shown light: EVGSYPYDDPDCPSHDSDCDNSGRSAGGGGTPLGLAGSGGSQAVVTQEPSLTVSPGGTVTLTCGSSTGAVTTSNYANWVQQKPGQAPRGLIGGTNKRAPGVPARFSGSLLGGKAALTLSGAQPEDEAEYYCALWYSNLWVFGGGTKLTVLRGGGGSGGGGSGGGGSGGGGSEVQLVESGGGLVQPGGSLRLSCAASGFTFNTYAMNWVRQAPGKGLEWVGRIRSKYNNYATYYADSVKGRFTISRDDSKNTLYLQMNSLRAEDTAVYYCVRHGNFGNSYVSWFAYWGQGTLVTVSSEPKSSDKTHTCPPCPAPELLGGPSVFLFPPKPKDTLMISRTPEVTCVVVDVSHEDPEVKFNWYVDGVEVHNAKTKPREEQYASTYRVVSVLTVLHQDWLNGKEYKCKVSNKALPAPIEKTISKAKGQPREPQVYTDPPSRDELTKNQVSLTCLVDGFYPSDIAVEWESNGQPENCYKTTPPVLDSDGSFFLYSKLTVDKSRWQQGNVFSCSVMHEALHNHYTQDSLSLSPGK", "values": [{"measurement": "EC50 of T-cell mediated killing of SKOV3 cells, fold increase compared with TY24051", "setting": "[5]", "result": "~800", "unit": "fold"}, {"measurement": "binding result", "setting": "[6]", "result": "binds"}]}
{"binder": "TY24051 (bispecific antibody, Anti-HER2 Fab arm and anti-CD3 scFv arm, IgG1 Fc with TYM13 mutations and N297A; also called HER2×CD3 bispecific T-cell-engaging antibody; parental bispecific Fab X scFv in IgG1) heavy: not shown not shown light: QAVVTQEPSLTVSPGGTVTLTCGSSTGAVTTSNYANWVQQKPGQAPRGLIGGTNKRAPGVPARFSGSLLGGKAALTLSGAQPEDEAEYYCALWYSNLWVFGGGTKLTVLRGGGGSGGGGSGGGGSGGGGSEVQLVESGGGLVQPGGSLRLSCAASGFTFNTYAMNWVRQAPGKGLEWVGRIRSKYNNYATYYADSVKGRFTISRDDSKNTLYLQMNSLRAEDTAVYYCVRHGNFGNSYVSWFAYWGQGTLVTVSSEPKSSDKTHTCPPCPAPELLGGPSVFLFPPKPKDTLMISRTPEVTCVVVDVSHEDPEVKFNWYVDGVEVHNAKTKPREEQYASTYRVVSVLTVLHQDWLNGKEYKCKVSNKALPAPIEKTISKAKGQPREPQVYTDPPSRDELTKNQVSLTCLVDGFYPSDIAVEWESNGQPENCYKTTPPVLDSDGSFFLYSKLTVDKSRWQQGNVFSCSVMHEALHNHYTQDSLSLSPGK", "values": [{"measurement": "binding result", "setting": "[6]", "result": "binds"}]}
{"binder": "anti-PDL1 Fv (antibody, V domains shown, Named only as the anti-PDL1 Fv used in the bispecific and parental antibodies; also called PDL1 VH / PDL1 VL) VH: EVQLVESGGGLVQPGGSLRLSCAASGYSISSGYYWGWIRQAPGKGLEWIGIIYPSGGGTNYAQKFQGRVTISRDNSKNTLYLQLNSLRAEDTAVYYCARGGGLGFDYWGQGTLVTVSS VL: DIQLTQSPSSLSASVGDRVTITCRASQSIPSFLNWYQQKPGKAPKLLIYAASSLQSGVPSRFSGSGSGTDFTLTISSLQPEDFATYYCQHYISWPRQFTFGQGTKVEIKR", "values": [{"measurement": "binding result", "setting": "[7]", "result": "binds"}]}
